Results as given in patent US20260242458A1 (NOVAROCK BIOTHERAPEUTICS, published 2026).

T1: recombinant human IL-25 protein (human, UniProt Q9H293 33-177)
T1 construct: Bought (Acro, catalog no: IL5-H4221) for ELISA; also called hIL-25; IL-17E
T1 sequence: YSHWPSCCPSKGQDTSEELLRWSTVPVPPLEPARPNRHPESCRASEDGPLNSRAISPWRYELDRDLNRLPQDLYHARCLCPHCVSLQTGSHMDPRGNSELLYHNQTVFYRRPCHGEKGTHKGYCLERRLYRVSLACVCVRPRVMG


target: T1, recombinant human IL-25 protein; experiment: BLI, Fab; species of IL-25 not stated, taken as human

| Kd | koff | kon | Binder |
| --- | --- | --- | --- |
| 1.8 nM | 0.00029 s⁻¹ | 161000 M⁻¹ s⁻¹ | IL25Ab7 Fab (Fab, V domains shown, VH/VL assigned as for IL25Ab7) VH: QVQLVQSGAEVKKPGASVKVSCKASGYSFTGYTMNWVRQAPGQGLEWMGLINPDNGGTSYKQKFQGRVTMTVDKSISTAYMELSRLRSDDTAVYYCAREGYYGPSPFHHYAMDYWGQGTLVTVSS VL: DIQMTQSPSSLSASVGDRVTITCQASQDISNYLNWYQQKPDGTIKLLIYYTSTLHTGVPSRFSGSGSGTDYTFTISSLQPEDIATYYCQQYSKLPYTFGQGTKLEIK |
| 1.86 nM | 0.000249 s⁻¹ | 134000 M⁻¹ s⁻¹ | IL25Ab6 Fab (Fab, V domains shown) VH: QVQLVQSGAEVKKPGASVKVSCKASGYSFTGYTMNWVRQAPGQGLEWMGLINPDNGGTSYKQKFQGRVTMTVDKSISTAYMELSRLRSDDTAVYYCAREGYYGPSPFHHYAMDYWGQGTLVTVSS VL: DIQMTQSPSSLSASVGDRVTITCQASQDISNYLNWYQQKPGKAPKLLIYYTSTLHTGVPSRFSGSGSGTDYTFTISSLQPEDIATYYCQQYSKLPYTFGQGTKLEIK |
| 1.78 nM | 0.000251 s⁻¹ | 141000 M⁻¹ s⁻¹ | IL25Ab8 Fab (Fab, V domains shown, VH/VL assigned as for IL25Ab8) VH: QVQLVQSGAEVKKPGASVKVSCKASGYSFTGYTMNWVRQAHGKNLEWMGLINPDNGGTSHKQKFQGRVTMTVDKSISTAYMELSRLRSDDTAVYYCAREGYYGPSPFHHYAMDYWGQGTLVTVSS VL: DIQMTQSPSSLSASVGDRVTITCQASQDISNYLNWYQQKPDGTIKLLIYYTSTLHTGVPSRFSGSGSGTDYTLTISSLQPEDIATYYCQQYSKLPYTFGGGTKLEIK |
| 1.89 nM | 0.000285 s⁻¹ | 150000 M⁻¹ s⁻¹ | IL25Ab3 Fab (Fab, V domains shown, VH/VL assigned as for IL25Ab3; also called murine parental Fab) VH: EVQLQQSGPELVKPGGSVRISCKASGYSFTGYTMNWVKQSHGKNLEWIGLINPDNGGTSHKQRFMGKATLTVDKSSSTAYMELLSLTSEDSAVYYCAREGYYGPSPFHHYAMDYWGQGTSVTVSS VL: DIQMTQTTSSLSASLGDRVTISCSASQDISNYLNWYQQKPDGTIKLLIYYTSTLHSGVPSRFSGSGSGTDYSLTISNLEPEDIATYYCQQYSKLPYTFGGGTKLEIK |
